In patent publication US20230212237:

How the values were obtained:
[1] = molecular target: GST-Rheb wild type (recombinant, human Rheb)
Sequence of GST-Rheb wild type (recombinant, human Rheb) (chain, as listed by the source): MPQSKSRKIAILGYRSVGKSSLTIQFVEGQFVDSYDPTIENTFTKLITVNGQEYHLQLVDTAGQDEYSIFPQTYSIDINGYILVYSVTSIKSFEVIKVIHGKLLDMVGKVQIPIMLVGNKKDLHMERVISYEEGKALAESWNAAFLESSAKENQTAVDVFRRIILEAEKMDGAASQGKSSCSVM

B1: FLAG-TSC1 and FLAG-TSC2 (TSC complex) (protein)
chain 1: MAQQANVGELLAMLDSPMLGVRDDVTAVFKENLNSDRGPMLVNTLVDYYLETSSQPALHILTTLQEPHDKHLLDRINEYVGKAATRLSILSLLGHVIRLQPSWKHKLSQAPLLPSLLKCLKMDTDVVVLTTGVLVLITMLPMIPQSGKQHLLDFFDIFGRLSSWCLKKPGHVAEVYLVHLHASVYALFHRLYGMYPCNFVSFLRSHYSMKENLETFEEVVKPMMEHVRIHPELVTGSKDHELDPRRWKRLETHDVVIECAKISLDPTEASYEDGYSVSHQISARFPHRSADVTTSPYADTQNSYGCATSTPYSTSRLMLLNMPGQLPQTLSSPSTRLITEPPQATLWSPSMVCGMTTPPTSPGNVPPDLSHPYSKVFGTTAGGKGTPLGTPATSPPPAPLCHSDDYVHISLPQATVTPPRKEERMDSARPCLHRQHHLLNDRGSEEPPGSKGSVTLSDLPGFLGDLASEEDSIEKDKEEAAISRELSEITTAEAEPVVPRGGFDSPFYRDSLPGSQRKTHSAASSSQGASVNPEPLHSSLDKLGPDTPKQAFTPIDLPCGSADESPAGDRECQTSLETSIFTPSPCKIPPPTRVGFGSGQPPPYDHLFEVALPKTAHHFVIRKTEELLKKAKGNTEEDGVPSTSPMEVLDRLIQQGADAHSKELNKLPLPSKSVDWTHFGGSPPSDEIRTLRDQLLLLHNQLLYERFKRQQHALRNRRLLRKVIKAAALEEHNAAMKDQLKLQEKDIQMWKVSLQKEQARYNQLQEQRDTMVTKLHSQIRQLQHDREEFYNQSQELQTKLEDCRNMIAELRIELKKANNKVCHTELLLSQVSQKLSNSESVQQQMEFLNRQLLVLGEVNELYLEQLQNKHSDTTKEVEMMKAAYRKELEKNRSHVLQQTQRLDTSQKRILELESHLAKKDHLLLEQKKYLEDVKLQARGQLQAAESRYEAQKRITQVFELEILDLYGRLEKDGLLKKLEEEKAEAAEAAEERLDCCNDGCSDSMVGHNEEASGHNGETKTPRPSSARGSSGSRGGGGSSSSSSELSTPEKPPHQRAGPFSSRWETTMGEASASIPTTVGSLPSSKSFLGMKARELFRNKSESQCDEDGMTSSLSESLKTELGKDLGVEAKIPLNLDGPHPSPPTPDSVGQLHIMDYNETHHEHS
chain 2: not shown
GST-Rheb G63A
  GAP assay: hydrolysis of Rheb-bound [alpha-32P]GTP to GDP (thin-layer chromatography): TSC1/TSC2 were completely unable to promote hydrolysis of GTP bound to the S21L, T23M, Y35N, E40K and G63A mutants
GST-Rheb T23M
  GAP assay: hydrolysis of Rheb-bound [alpha-32P]GTP to GDP (thin-layer chromatography): TSC1/TSC2 were completely unable to promote hydrolysis of GTP bound to the S21L, T23M, Y35N, E40K and G63A mutants
GST-Rheb G29S
  GAP assay: hydrolysis of Rheb-bound [alpha-32P]GTP to GDP (thin-layer chromatography): partial resistance to them was seen for Rheb mutants G29S and Q64L
GST-Rheb Q64L
  GAP assay: hydrolysis of Rheb-bound [alpha-32P]GTP to GDP (thin-layer chromatography): partial resistance to them was seen for Rheb mutants G29S and Q64L
GST-Rheb E40K
  GAP assay: hydrolysis of Rheb-bound [alpha-32P]GTP to GDP (thin-layer chromatography): TSC1/TSC2 were completely unable to promote hydrolysis of GTP bound to the S21L, T23M, Y35N, E40K and G63A mutants
[1]
  GAP assay: hydrolysis of Rheb-bound [alpha-32P]GTP to GDP (thin-layer chromatography): Incubation with FLAG-TSC1 and FLAG-TSC2 led to hydrolysis of Rheb-GTP into Rheb-GDP
GST-Rheb S21L
  GAP assay: hydrolysis of Rheb-bound [alpha-32P]GTP to GDP (thin-layer chromatography): TSC1/TSC2 were completely unable to promote hydrolysis of GTP bound to the S21L, T23M, Y35N, E40K and G63A mutants
GST-Rheb Y35N
  GAP assay: hydrolysis of Rheb-bound [alpha-32P]GTP to GDP (thin-layer chromatography): TSC1/TSC2 were completely unable to promote hydrolysis of GTP bound to the S21L, T23M, Y35N, E40K and G63A mutants
